The text below walks through data of publication PMC6698962 (Antibodies, 2018).

Test [1] has as its target fluorescent-binding TNF nanobody (BTN-Kat) (Bactrian camel). The test can be described thus: SEC; Superose 6, 5 mg/mL protein, 20 mM NaPi pH 7.4, 150 mM NaCl, 0.5 mL/min; apparent molecular mass from calibration with standard proteins.
The target in test [2] is T1, human tumor necrosis factor (TNF) (Homo sapiens (huTNFKI mouse BMDM), UniProt P01375).
T1 construct: tumor necrosis factor, human, expressed in place of murine TNF in huTNFKI mice; stained inside fixed and permeabilised cells kept with brefeldin A; in the in vivo rows the hTNF of the knock-in mice; also called hTNF; human TNF
T1 sequence (P01375 whole entry): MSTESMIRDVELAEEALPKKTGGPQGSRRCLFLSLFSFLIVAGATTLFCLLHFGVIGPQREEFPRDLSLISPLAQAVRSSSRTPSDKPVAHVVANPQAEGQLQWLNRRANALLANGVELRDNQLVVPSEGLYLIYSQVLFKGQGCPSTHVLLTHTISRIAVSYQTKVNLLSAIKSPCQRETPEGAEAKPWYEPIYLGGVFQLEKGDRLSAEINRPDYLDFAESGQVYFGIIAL
The test can be described thus: flow cytometry on cells; intracellular cytokine staining (BD fixation and permeabilisation kit with GolgiPlug) of BMDM activated by LPS (100 ng/mL, 4 h) in the presence of brefeldin A; Fc-gamma receptor blocked; cells gated on F4/80; Katushka fluorescence read. The following applies: one partner purified.

Test [3] has as its target T2, mouse tumor necrosis factor (TNF) (Mus musculus C57Bl/6, UniProt P06804).
T2 construct: tumor necrosis factor, mouse; stained inside fixed and permeabilised cells kept with brefeldin A; also called mouse TNF; murine TNF
Described as above. The following applies: one partner purified.

“And” between values parts separate entries of the source, which are not always exact repeats. Equal entries are not always repeated.

T2 sequence (P06804 whole entry): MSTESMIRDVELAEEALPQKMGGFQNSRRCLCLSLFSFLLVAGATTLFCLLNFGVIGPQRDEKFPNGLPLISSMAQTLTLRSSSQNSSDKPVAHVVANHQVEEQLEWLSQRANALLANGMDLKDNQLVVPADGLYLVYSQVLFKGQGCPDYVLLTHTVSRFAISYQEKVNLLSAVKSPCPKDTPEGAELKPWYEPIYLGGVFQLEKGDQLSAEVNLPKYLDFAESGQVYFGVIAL

B1: fluorescent-binding TNF nanobody (BTN-Kat) (VHH)
VHH: QVQLVESGGGSVQAGGSLRLSCAASGSTNSELCMAWFREVPGKEREVVALVNSDGRTIYGEAVKGRFTMSKDNAKNTLYLQMNSLKAEDTAMYYCAAGPGFFGRCNYNSVGQGTQVTVSS
notes: flexible glycine-serine linker; far-red fluorescent protein Katushka (TurboFP635); A mixture of oligomeric forms was used in all experiments; Expression and purification are in Method S1; also called VHH41 fused to Katushka; source: E. coli (BL21(DE3) is named in the title of Result S1), purified
In the case of B1, the stoichiometry N in test [1] is 2 and 3. Also, the binding result in test [2] and in test [3] was “binds” throughout.
